Laboratory results published in IntAct's records for PubMed 35512704.

B1: Speckle-type POZ protein (Homo sapiens), O43791 (parent)
chain: MSRVPSPPPPAEMSSGPVAESWCYTQIKVVKFSYMWTINNFSFCREEMGEVIKSSTFSSGANDKLKWCLRVNPKGLDEESKDYLSLYLLLVSCPKSEVRAKFKFSILNAKGEETKAMESQRAYRFVQGKDWGFKKFIRRDFLLDEANGLLPDDKLTLFCEVSVVQDSVNISGQNTMNMVKVPECRLADELGGLWENSRFTDCCLCVAGQEFQAHKAILAARSPVFSAMFEHEMEESKKNRVEINDVEPEVFKEMMCFIYTGKAPNLDKMADDLLAAADKYALERLKVMCEDALCSNLSVENAAEILILADLHSADQLKTQAVDFINYHASDVLETSGWKSMVVSHPHLVAEAYRSLASAQCPFLGPPRKRLKQS

Variants of: B1
Conditions: with mk14_human MAPK14, Q16539
Chain of mk14_human MAPK14, Q16539 (Q16539 whole entry): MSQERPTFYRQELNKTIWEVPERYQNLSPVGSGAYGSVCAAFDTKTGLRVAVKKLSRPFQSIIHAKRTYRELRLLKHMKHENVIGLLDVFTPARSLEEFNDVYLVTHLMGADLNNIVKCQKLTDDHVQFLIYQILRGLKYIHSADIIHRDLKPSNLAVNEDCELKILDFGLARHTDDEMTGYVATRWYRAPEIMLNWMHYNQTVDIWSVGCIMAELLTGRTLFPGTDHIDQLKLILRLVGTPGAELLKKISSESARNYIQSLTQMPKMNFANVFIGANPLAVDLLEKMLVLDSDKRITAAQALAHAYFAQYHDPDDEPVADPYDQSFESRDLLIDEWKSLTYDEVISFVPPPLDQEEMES

| effect of a mutation on the interaction | Variant |
| --- | --- |
| with no effect | MSRVPSPPPPAEMSSGPVAESWCYTQIKVVKFSYMWTINNFSFCREEMGEVIKSSTFSSGANDKLKWCLRVNPKGLDEESKDYLSLYLLLVSCPKSEVRAKFKFSILNAKGEETKAMESQRAYRFVQGKDWGVKKFIRRDFLLDEANGLLPDDKLTLFCEVSVVQDSVNISGQNTMNMVKVPECRLADELGGLWENSRFTDCCLCVAGQEFQAHKAILAARSPVFSAMFEHEMEESKKNRVEINDVEPEVFKEMMCFIYTGKAPNLDKMADDLLAAADKYALERLKVMCEDALCSNLSVENAAEILILADLHSADQLKTQAVDFINYHASDVLETSGWKSMVVSHPHLVAEAYRSLASAQCPFLGPPRKRLKQS [F133V] |

Variants of: B1
Conditions: with mk03_human MAPK3, P27361
Chain of mk03_human MAPK3, P27361 (P27361 whole entry): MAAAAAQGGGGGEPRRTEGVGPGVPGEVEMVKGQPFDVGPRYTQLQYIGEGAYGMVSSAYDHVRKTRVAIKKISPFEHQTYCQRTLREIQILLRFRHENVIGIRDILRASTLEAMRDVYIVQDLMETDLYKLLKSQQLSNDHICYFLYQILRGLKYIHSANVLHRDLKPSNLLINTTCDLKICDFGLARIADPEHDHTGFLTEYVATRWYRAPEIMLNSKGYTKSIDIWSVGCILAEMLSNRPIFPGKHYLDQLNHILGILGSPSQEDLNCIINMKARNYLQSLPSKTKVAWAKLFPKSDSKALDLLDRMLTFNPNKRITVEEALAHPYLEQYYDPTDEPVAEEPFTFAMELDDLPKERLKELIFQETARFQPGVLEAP

| effect of a mutation on the interaction | Variant |
| --- | --- |
| with no effect | MSRVPSPPPPAEMSSGPVAESWCYTQIKVVKFSYMWTINNFSFCREEMGEVIKSSTFSSGANDKLKWCLRVNPKGLDEESKDYLSLYLLLVSCPKSEVRAKFKFSILNAKGEETKAMESQRAYRFVQGKDWGVKKFIRRDFLLDEANGLLPDDKLTLFCEVSVVQDSVNISGQNTMNMVKVPECRLADELGGLWENSRFTDCCLCVAGQEFQAHKAILAARSPVFSAMFEHEMEESKKNRVEINDVEPEVFKEMMCFIYTGKAPNLDKMADDLLAAADKYALERLKVMCEDALCSNLSVENAAEILILADLHSADQLKTQAVDFINYHASDVLETSGWKSMVVSHPHLVAEAYRSLASAQCPFLGPPRKRLKQS [F133V] |

Variants of: B1
Conditions: with mk04_human MAPK4, P31152

| effect of a mutation on the interaction | Variant |
| --- | --- |
| with no effect | MSRVPSPPPPAEMSSGPVAESWCYTQIKVVKFSYMWTINNFSFCREEMGEVIKSSTFSSGANDKLKWCLRVNPKGLDEESKDYLSLYLLLVSCPKSEVRAKFKFSILNAKGEETKAMESQRAYRFVQGKDWGVKKFIRRDFLLDEANGLLPDDKLTLFCEVSVVQDSVNISGQNTMNMVKVPECRLADELGGLWENSRFTDCCLCVAGQEFQAHKAILAARSPVFSAMFEHEMEESKKNRVEINDVEPEVFKEMMCFIYTGKAPNLDKMADDLLAAADKYALERLKVMCEDALCSNLSVENAAEILILADLHSADQLKTQAVDFINYHASDVLETSGWKSMVVSHPHLVAEAYRSLASAQCPFLGPPRKRLKQS [F133V] |

Variants of: B1
Conditions: with mk06_human MAPK6, Q16659

| effect of a mutation on the interaction | Variant |
| --- | --- |
| with no effect | MSRVPSPPPPAEMSSGPVAESWCYTQIKVVKFSYMWTINNFSFCREEMGEVIKSSTFSSGANDKLKWCLRVNPKGLDEESKDYLSLYLLLVSCPKSEVRAKFKFSILNAKGEETKAMESQRAYRFVQGKDWGVKKFIRRDFLLDEANGLLPDDKLTLFCEVSVVQDSVNISGQNTMNMVKVPECRLADELGGLWENSRFTDCCLCVAGQEFQAHKAILAARSPVFSAMFEHEMEESKKNRVEINDVEPEVFKEMMCFIYTGKAPNLDKMADDLLAAADKYALERLKVMCEDALCSNLSVENAAEILILADLHSADQLKTQAVDFINYHASDVLETSGWKSMVVSHPHLVAEAYRSLASAQCPFLGPPRKRLKQS [F133V] |

Variants of: B1
Conditions: with sin1_human MAPKAP1, Q9BPZ7
Chain of sin1_human MAPKAP1, Q9BPZ7 (Q9BPZ7 whole entry): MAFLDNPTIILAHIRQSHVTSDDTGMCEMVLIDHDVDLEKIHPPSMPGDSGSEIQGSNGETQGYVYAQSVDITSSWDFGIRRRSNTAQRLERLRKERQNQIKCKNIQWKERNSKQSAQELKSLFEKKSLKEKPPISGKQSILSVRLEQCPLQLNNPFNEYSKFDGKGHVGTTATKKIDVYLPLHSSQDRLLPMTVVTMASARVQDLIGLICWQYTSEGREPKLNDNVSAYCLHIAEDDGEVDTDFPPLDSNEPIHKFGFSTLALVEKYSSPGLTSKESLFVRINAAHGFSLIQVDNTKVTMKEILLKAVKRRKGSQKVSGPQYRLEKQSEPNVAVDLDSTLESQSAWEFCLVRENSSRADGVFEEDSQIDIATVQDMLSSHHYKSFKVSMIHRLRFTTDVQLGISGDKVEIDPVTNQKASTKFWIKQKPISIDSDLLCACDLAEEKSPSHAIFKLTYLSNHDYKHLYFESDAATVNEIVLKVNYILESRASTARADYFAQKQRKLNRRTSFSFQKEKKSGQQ

| effect of a mutation on the interaction | Variant |
| --- | --- |
| with no effect | MSRVPSPPPPAEMSSGPVAESWCYTQIKVVKFSYMWTINNFSFCREEMGEVIKSSTFSSGANDKLKWCLRVNPKGLDEESKDYLSLYLLLVSCPKSEVRAKFKFSILNAKGEETKAMESQRAYRFVQGKDWGVKKFIRRDFLLDEANGLLPDDKLTLFCEVSVVQDSVNISGQNTMNMVKVPECRLADELGGLWENSRFTDCCLCVAGQEFQAHKAILAARSPVFSAMFEHEMEESKKNRVEINDVEPEVFKEMMCFIYTGKAPNLDKMADDLLAAADKYALERLKVMCEDALCSNLSVENAAEILILADLHSADQLKTQAVDFINYHASDVLETSGWKSMVVSHPHLVAEAYRSLASAQCPFLGPPRKRLKQS [F133V] |

Variants of: B1
Conditions: with mcl1_human MCL1, Q07820
Chain of mcl1_human MCL1, Q07820 (Q07820 whole entry): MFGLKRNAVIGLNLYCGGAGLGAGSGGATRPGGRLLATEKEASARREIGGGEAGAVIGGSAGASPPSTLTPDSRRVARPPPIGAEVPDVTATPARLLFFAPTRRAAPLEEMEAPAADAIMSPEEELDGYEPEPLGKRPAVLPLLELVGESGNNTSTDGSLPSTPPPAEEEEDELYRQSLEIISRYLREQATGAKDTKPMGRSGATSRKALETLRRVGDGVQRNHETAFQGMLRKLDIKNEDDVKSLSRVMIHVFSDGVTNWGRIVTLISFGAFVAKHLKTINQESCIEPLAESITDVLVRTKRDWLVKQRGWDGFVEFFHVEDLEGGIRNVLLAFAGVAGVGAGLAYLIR

| effect of a mutation on the interaction | Variant |
| --- | --- |
| with no effect | MSRVPSPPPPAEMSSGPVAESWCYTQIKVVKFSYMWTINNFSFCREEMGEVIKSSTFSSGANDKLKWCLRVNPKGLDEESKDYLSLYLLLVSCPKSEVRAKFKFSILNAKGEETKAMESQRAYRFVQGKDWGVKKFIRRDFLLDEANGLLPDDKLTLFCEVSVVQDSVNISGQNTMNMVKVPECRLADELGGLWENSRFTDCCLCVAGQEFQAHKAILAARSPVFSAMFEHEMEESKKNRVEINDVEPEVFKEMMCFIYTGKAPNLDKMADDLLAAADKYALERLKVMCEDALCSNLSVENAAEILILADLHSADQLKTQAVDFINYHASDVLETSGWKSMVVSHPHLVAEAYRSLASAQCPFLGPPRKRLKQS [F133V] |

Variants of: B1
Conditions: with mdm2_human MDM2, Q00987
Chain of mdm2_human MDM2, Q00987 (Q00987 whole entry, looked up): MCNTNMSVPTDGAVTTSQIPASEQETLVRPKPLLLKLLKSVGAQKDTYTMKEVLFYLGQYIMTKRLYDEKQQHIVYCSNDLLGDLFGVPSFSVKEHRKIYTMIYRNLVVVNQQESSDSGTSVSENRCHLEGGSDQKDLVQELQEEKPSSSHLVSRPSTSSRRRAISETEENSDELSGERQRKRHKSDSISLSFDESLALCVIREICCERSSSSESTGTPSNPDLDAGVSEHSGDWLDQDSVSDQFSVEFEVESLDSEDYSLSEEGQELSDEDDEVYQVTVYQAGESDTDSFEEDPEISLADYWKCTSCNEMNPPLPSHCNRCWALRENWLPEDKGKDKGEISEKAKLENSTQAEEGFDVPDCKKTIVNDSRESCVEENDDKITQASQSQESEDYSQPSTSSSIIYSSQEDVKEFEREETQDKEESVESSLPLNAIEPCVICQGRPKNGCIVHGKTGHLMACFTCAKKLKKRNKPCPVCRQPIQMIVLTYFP

| effect of a mutation on the interaction | Variant |
| --- | --- |
| with no effect | MSRVPSPPPPAEMSSGPVAESWCYTQIKVVKFSYMWTINNFSFCREEMGEVIKSSTFSSGANDKLKWCLRVNPKGLDEESKDYLSLYLLLVSCPKSEVRAKFKFSILNAKGEETKAMESQRAYRFVQGKDWGVKKFIRRDFLLDEANGLLPDDKLTLFCEVSVVQDSVNISGQNTMNMVKVPECRLADELGGLWENSRFTDCCLCVAGQEFQAHKAILAARSPVFSAMFEHEMEESKKNRVEINDVEPEVFKEMMCFIYTGKAPNLDKMADDLLAAADKYALERLKVMCEDALCSNLSVENAAEILILADLHSADQLKTQAVDFINYHASDVLETSGWKSMVVSHPHLVAEAYRSLASAQCPFLGPPRKRLKQS [F133V] |

Variants of: B1
Conditions: with mitf_human MITF

| effect of a mutation on the interaction | Variant |
| --- | --- |
| with no effect | MSRVPSPPPPAEMSSGPVAESWCYTQIKVVKFSYMWTINNFSFCREEMGEVIKSSTFSSGANDKLKWCLRVNPKGLDEESKDYLSLYLLLVSCPKSEVRAKFKFSILNAKGEETKAMESQRAYRFVQGKDWGVKKFIRRDFLLDEANGLLPDDKLTLFCEVSVVQDSVNISGQNTMNMVKVPECRLADELGGLWENSRFTDCCLCVAGQEFQAHKAILAARSPVFSAMFEHEMEESKKNRVEINDVEPEVFKEMMCFIYTGKAPNLDKMADDLLAAADKYALERLKVMCEDALCSNLSVENAAEILILADLHSADQLKTQAVDFINYHASDVLETSGWKSMVVSHPHLVAEAYRSLASAQCPFLGPPRKRLKQS [F133V] |

Variants of: B1
Conditions: with mlh1_human MLH1, P40692
Chain of mlh1_human MLH1, P40692 (P40692 whole entry): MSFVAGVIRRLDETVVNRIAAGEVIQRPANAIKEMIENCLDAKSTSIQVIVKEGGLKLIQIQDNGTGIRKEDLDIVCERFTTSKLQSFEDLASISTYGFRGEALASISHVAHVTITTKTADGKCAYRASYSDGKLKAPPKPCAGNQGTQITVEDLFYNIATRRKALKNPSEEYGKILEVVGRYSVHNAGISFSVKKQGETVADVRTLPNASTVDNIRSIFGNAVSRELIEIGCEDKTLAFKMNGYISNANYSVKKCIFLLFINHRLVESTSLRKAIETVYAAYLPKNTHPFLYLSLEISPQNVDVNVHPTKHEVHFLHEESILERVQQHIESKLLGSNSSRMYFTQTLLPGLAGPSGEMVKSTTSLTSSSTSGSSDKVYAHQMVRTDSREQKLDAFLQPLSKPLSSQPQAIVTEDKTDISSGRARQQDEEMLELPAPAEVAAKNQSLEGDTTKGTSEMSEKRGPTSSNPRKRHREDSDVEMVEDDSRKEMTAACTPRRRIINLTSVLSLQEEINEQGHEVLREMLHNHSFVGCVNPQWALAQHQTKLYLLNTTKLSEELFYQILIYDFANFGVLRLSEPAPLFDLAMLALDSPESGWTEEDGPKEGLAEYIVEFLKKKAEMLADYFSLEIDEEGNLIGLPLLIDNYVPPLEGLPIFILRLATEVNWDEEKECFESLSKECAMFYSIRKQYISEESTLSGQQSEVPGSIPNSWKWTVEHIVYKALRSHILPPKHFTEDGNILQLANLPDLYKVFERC

| effect of a mutation on the interaction | Variant |
| --- | --- |
| with no effect | MSRVPSPPPPAEMSSGPVAESWCYTQIKVVKFSYMWTINNFSFCREEMGEVIKSSTFSSGANDKLKWCLRVNPKGLDEESKDYLSLYLLLVSCPKSEVRAKFKFSILNAKGEETKAMESQRAYRFVQGKDWGVKKFIRRDFLLDEANGLLPDDKLTLFCEVSVVQDSVNISGQNTMNMVKVPECRLADELGGLWENSRFTDCCLCVAGQEFQAHKAILAARSPVFSAMFEHEMEESKKNRVEINDVEPEVFKEMMCFIYTGKAPNLDKMADDLLAAADKYALERLKVMCEDALCSNLSVENAAEILILADLHSADQLKTQAVDFINYHASDVLETSGWKSMVVSHPHLVAEAYRSLASAQCPFLGPPRKRLKQS [F133V] |

Variants of: B1
Conditions: with mtor_human MTOR

| effect of a mutation on the interaction | Variant |
| --- | --- |
| with no effect | MSRVPSPPPPAEMSSGPVAESWCYTQIKVVKFSYMWTINNFSFCREEMGEVIKSSTFSSGANDKLKWCLRVNPKGLDEESKDYLSLYLLLVSCPKSEVRAKFKFSILNAKGEETKAMESQRAYRFVQGKDWGVKKFIRRDFLLDEANGLLPDDKLTLFCEVSVVQDSVNISGQNTMNMVKVPECRLADELGGLWENSRFTDCCLCVAGQEFQAHKAILAARSPVFSAMFEHEMEESKKNRVEINDVEPEVFKEMMCFIYTGKAPNLDKMADDLLAAADKYALERLKVMCEDALCSNLSVENAAEILILADLHSADQLKTQAVDFINYHASDVLETSGWKSMVVSHPHLVAEAYRSLASAQCPFLGPPRKRLKQS [F133V] |

Variants of: B1
Conditions: with myb_human MYB

| effect of a mutation on the interaction | Variant |
| --- | --- |
| with no effect | MSRVPSPPPPAEMSSGPVAESWCYTQIKVVKFSYMWTINNFSFCREEMGEVIKSSTFSSGANDKLKWCLRVNPKGLDEESKDYLSLYLLLVSCPKSEVRAKFKFSILNAKGEETKAMESQRAYRFVQGKDWGVKKFIRRDFLLDEANGLLPDDKLTLFCEVSVVQDSVNISGQNTMNMVKVPECRLADELGGLWENSRFTDCCLCVAGQEFQAHKAILAARSPVFSAMFEHEMEESKKNRVEINDVEPEVFKEMMCFIYTGKAPNLDKMADDLLAAADKYALERLKVMCEDALCSNLSVENAAEILILADLHSADQLKTQAVDFINYHASDVLETSGWKSMVVSHPHLVAEAYRSLASAQCPFLGPPRKRLKQS [F133V] |

Variants of: B1
Conditions: with mybb_human MYBL2, P10244
Chain of mybb_human MYBL2, P10244 (P10244 whole entry): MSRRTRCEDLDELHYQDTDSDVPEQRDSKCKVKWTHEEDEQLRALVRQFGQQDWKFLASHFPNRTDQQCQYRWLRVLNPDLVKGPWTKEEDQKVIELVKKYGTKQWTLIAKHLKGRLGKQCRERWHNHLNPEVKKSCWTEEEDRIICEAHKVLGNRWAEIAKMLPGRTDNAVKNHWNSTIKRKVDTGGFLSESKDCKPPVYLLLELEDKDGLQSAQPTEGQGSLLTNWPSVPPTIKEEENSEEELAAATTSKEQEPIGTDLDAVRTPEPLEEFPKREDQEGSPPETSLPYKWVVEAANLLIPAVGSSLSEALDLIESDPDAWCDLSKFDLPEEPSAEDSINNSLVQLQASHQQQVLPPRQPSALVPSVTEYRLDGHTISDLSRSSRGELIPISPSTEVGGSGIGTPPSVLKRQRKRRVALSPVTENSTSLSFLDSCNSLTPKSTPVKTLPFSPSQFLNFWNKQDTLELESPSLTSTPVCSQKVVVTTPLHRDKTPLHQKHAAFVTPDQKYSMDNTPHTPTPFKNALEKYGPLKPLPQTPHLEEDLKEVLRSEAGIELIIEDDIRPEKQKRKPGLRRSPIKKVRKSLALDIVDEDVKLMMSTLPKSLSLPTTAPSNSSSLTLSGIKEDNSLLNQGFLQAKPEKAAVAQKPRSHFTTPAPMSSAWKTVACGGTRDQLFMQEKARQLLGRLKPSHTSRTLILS

| effect of a mutation on the interaction | Variant |
| --- | --- |
| with no effect | MSRVPSPPPPAEMSSGPVAESWCYTQIKVVKFSYMWTINNFSFCREEMGEVIKSSTFSSGANDKLKWCLRVNPKGLDEESKDYLSLYLLLVSCPKSEVRAKFKFSILNAKGEETKAMESQRAYRFVQGKDWGVKKFIRRDFLLDEANGLLPDDKLTLFCEVSVVQDSVNISGQNTMNMVKVPECRLADELGGLWENSRFTDCCLCVAGQEFQAHKAILAARSPVFSAMFEHEMEESKKNRVEINDVEPEVFKEMMCFIYTGKAPNLDKMADDLLAAADKYALERLKVMCEDALCSNLSVENAAEILILADLHSADQLKTQAVDFINYHASDVLETSGWKSMVVSHPHLVAEAYRSLASAQCPFLGPPRKRLKQS [F133V] |

Variants of: B1
Conditions: with myc_human MYC

| effect of a mutation on the interaction | Variant |
| --- | --- |
| with no effect | MSRVPSPPPPAEMSSGPVAESWCYTQIKVVKFSYMWTINNFSFCREEMGEVIKSSTFSSGANDKLKWCLRVNPKGLDEESKDYLSLYLLLVSCPKSEVRAKFKFSILNAKGEETKAMESQRAYRFVQGKDWGVKKFIRRDFLLDEANGLLPDDKLTLFCEVSVVQDSVNISGQNTMNMVKVPECRLADELGGLWENSRFTDCCLCVAGQEFQAHKAILAARSPVFSAMFEHEMEESKKNRVEINDVEPEVFKEMMCFIYTGKAPNLDKMADDLLAAADKYALERLKVMCEDALCSNLSVENAAEILILADLHSADQLKTQAVDFINYHASDVLETSGWKSMVVSHPHLVAEAYRSLASAQCPFLGPPRKRLKQS [F133V] |

Variants of: B1
Conditions: with mycn_human MYCN

| effect of a mutation on the interaction | Variant |
| --- | --- |
| with no effect | MSRVPSPPPPAEMSSGPVAESWCYTQIKVVKFSYMWTINNFSFCREEMGEVIKSSTFSSGANDKLKWCLRVNPKGLDEESKDYLSLYLLLVSCPKSEVRAKFKFSILNAKGEETKAMESQRAYRFVQGKDWGVKKFIRRDFLLDEANGLLPDDKLTLFCEVSVVQDSVNISGQNTMNMVKVPECRLADELGGLWENSRFTDCCLCVAGQEFQAHKAILAARSPVFSAMFEHEMEESKKNRVEINDVEPEVFKEMMCFIYTGKAPNLDKMADDLLAAADKYALERLKVMCEDALCSNLSVENAAEILILADLHSADQLKTQAVDFINYHASDVLETSGWKSMVVSHPHLVAEAYRSLASAQCPFLGPPRKRLKQS [F133V] |

Variants of: B1
Conditions: with ncoa3_human NCOA3, Q9Y6Q9
Chain of ncoa3_human NCOA3, Q9Y6Q9 (Q9Y6Q9 whole entry, looked up): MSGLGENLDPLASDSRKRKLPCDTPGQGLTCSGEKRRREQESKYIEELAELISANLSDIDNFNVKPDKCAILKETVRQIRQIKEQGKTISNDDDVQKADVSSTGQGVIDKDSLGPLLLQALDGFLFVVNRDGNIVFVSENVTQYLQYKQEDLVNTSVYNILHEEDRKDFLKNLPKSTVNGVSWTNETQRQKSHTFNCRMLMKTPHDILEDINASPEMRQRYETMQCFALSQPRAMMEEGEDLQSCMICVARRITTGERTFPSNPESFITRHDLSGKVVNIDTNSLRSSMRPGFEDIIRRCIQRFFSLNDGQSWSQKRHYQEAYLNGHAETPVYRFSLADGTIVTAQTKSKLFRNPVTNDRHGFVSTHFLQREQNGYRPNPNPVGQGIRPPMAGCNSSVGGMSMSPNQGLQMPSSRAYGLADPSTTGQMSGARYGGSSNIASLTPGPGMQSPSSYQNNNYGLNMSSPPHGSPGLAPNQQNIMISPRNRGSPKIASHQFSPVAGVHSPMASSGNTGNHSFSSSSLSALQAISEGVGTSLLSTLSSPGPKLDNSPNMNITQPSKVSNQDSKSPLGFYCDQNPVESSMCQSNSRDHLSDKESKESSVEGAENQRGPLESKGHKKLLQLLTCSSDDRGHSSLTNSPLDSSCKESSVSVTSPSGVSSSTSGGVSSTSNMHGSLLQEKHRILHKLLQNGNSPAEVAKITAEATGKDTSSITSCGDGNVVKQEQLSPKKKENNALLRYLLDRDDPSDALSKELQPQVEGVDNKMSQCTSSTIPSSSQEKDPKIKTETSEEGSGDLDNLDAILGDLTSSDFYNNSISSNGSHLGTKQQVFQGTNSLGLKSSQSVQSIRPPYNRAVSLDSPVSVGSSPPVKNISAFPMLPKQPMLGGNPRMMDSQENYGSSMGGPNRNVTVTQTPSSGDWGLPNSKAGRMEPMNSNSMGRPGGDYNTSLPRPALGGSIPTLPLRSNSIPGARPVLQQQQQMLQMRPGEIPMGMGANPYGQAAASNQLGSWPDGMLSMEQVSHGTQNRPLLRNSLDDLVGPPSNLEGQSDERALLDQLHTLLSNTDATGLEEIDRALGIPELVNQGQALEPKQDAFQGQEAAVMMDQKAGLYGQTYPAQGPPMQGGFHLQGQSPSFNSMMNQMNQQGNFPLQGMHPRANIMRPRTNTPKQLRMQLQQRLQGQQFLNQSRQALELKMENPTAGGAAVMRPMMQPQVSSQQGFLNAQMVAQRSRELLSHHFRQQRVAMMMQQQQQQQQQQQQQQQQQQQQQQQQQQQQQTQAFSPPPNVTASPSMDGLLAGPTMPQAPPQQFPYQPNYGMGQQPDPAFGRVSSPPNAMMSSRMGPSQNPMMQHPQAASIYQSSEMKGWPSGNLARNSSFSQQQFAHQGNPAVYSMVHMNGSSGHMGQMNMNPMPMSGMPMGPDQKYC

| effect of a mutation on the interaction | Variant |
| --- | --- |
| with no effect | MSRVPSPPPPAEMSSGPVAESWCYTQIKVVKFSYMWTINNFSFCREEMGEVIKSSTFSSGANDKLKWCLRVNPKGLDEESKDYLSLYLLLVSCPKSEVRAKFKFSILNAKGEETKAMESQRAYRFVQGKDWGVKKFIRRDFLLDEANGLLPDDKLTLFCEVSVVQDSVNISGQNTMNMVKVPECRLADELGGLWENSRFTDCCLCVAGQEFQAHKAILAARSPVFSAMFEHEMEESKKNRVEINDVEPEVFKEMMCFIYTGKAPNLDKMADDLLAAADKYALERLKVMCEDALCSNLSVENAAEILILADLHSADQLKTQAVDFINYHASDVLETSGWKSMVVSHPHLVAEAYRSLASAQCPFLGPPRKRLKQS [F133V] |
